In this experiment the target is T1, human RXFP1 (human, UniProt Q9HBX9 1-757).
T1 sequence (looked up): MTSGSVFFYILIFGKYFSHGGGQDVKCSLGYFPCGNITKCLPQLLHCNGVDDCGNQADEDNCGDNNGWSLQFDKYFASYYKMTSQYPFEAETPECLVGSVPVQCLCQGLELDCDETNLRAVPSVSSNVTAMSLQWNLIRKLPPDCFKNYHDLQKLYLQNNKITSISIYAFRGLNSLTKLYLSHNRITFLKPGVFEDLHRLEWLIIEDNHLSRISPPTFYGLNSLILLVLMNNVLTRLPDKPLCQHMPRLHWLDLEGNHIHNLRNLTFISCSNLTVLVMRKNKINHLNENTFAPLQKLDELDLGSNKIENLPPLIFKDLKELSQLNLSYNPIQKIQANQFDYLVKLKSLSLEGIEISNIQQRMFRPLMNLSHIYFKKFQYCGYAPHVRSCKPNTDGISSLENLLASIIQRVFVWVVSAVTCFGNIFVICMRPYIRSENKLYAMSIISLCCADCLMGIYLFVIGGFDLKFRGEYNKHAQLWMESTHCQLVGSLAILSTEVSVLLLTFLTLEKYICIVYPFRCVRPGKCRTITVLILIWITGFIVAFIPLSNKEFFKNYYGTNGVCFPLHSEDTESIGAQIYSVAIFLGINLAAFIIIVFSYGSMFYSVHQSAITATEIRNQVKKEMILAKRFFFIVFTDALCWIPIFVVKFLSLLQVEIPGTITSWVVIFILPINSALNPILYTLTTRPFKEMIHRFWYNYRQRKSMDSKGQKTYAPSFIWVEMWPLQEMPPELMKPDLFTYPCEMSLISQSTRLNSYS
Briefly: cell-based or functional assay.

Numbered stars: 1 amine (or outer) side, 2 acyl side, 3 side chain; on linkers, the order of the positions; unused ones are H or OH. Square brackets hold non-standard residues; d marks the D form. Side chains are listed from the residue outwards. * marks the point of attachment. TTDS = 4-[3-[2-[2-(3-aminopropoxy)ethoxy]ethoxy]propylamino]-4-oxo-butanoyl; Trp(5-Cl) = N[C@@H](Cc1c[nH]c2ccc(Cl)cc12)C(=O)O; Trp(5-F) = N[C@@H](Cc1c[nH]c2ccc(F)cc12)C(=O)O; Phe(4-F) = N[C@@H](Cc1ccc(F)cc1)C(=O)O; γGlu = O=C(O)[C@H](CCC(=O)[*:2])N[*:1]; Palmitoyl = CCCCCCCCCCCCCCCC(=O)*; αMeF = C[C@](N)(Cc1ccccc1)C(=O)O; Myristoyl = CCCCCCCCCCCCCC(=O)*; αMeK = C[C@](N)(CCCCN)C(=O)O; hLys = NCCCCC[C@H](N)C(=O)O; AEEA = NCCOCCOCC(=O)O; Aib = CC(C)(N)C(=O)O

For Ac-LEGREKVRAK(Ac)I[Aib]IEGK([TTDS-TTDS-TTDS-γGlu-γGlu-γGlu-Palmitoyl])STFS[αMeK]RAK(Ac)-NH2 [Relaxin peptide analogue of SEQ ID NO: 84], the “EC50 (nM), OVCAR 5 cells (cAMP)” value turned out to be 0.1 nM and the “EMax, OVCAR 5 cells (cAMP)” value came to 95%.

B1: Relaxin peptide analogue of SEQ ID NO: 8 (peptide)
peptide: Ac-LEGREKVRAK(Ac)I[Aib][Aib]EGK([AEEA-AEEA-AEEA-AEEA-γGlu-γGlu-γGlu-Palmitoyl])STFS[αMeK]RAK(Ac)-NH2
SMILES: CCCCCCCCCCCCCCCC(=O)N[C@@H](CCC(=O)N[C@@H](CCC(=O)N[C@@H](CCC(=O)NCCOCCOCC(=O)NCCOCCOCC(=O)NCCOCCOCC(=O)NCCOCCOCC(=O)NCCCC[C@H](NC(=O)CNC(=O)[C@H](CCC(=O)O)NC(=O)C(C)(C)NC(=O)C(C)(C)NC(=O)[C@@H](NC(=O)[C@H](CCCCNC(C)=O)NC(=O)[C@H](C)NC(=O)[C@H](CCCNC(=N)N)NC(=O)[C@@H](NC(=O)[C@H](CCCCN)NC(=O)[C@H](CCC(=O)O)NC(=O)[C@H](CCCNC(=N)N)NC(=O)CNC(=O)[C@H](CCC(=O)O)NC(=O)[C@H](CC(C)C)NC(C)=O)C(C)C)[C@@H](C)CC)C(=O)N[C@@H](CO)C(=O)N[C@H](C(=O)N[C@@H](Cc1ccccc1)C(=O)N[C@@H](CO)C(=O)N[C@@](C)(CCCCN)C(=O)N[C@@H](CCCNC(=N)N)C(=O)N[C@@H](C)C(=O)N[C@@H](CCCCNC(C)=O)C(N)=O)[C@@H](C)O)C(=O)O)C(=O)O)C(=O)O
Take B1: the “EC50 (nM), OVCAR 5 cells (cAMP)” value turned out to be 1.86 nM and the “EMax, OVCAR 5 cells (cAMP)” value worked out at 92%.
Take Ac-LEGRERVRAK(Ac)I[Aib][Aib]EGK([TTDS-TTDS-TTDS-γGlu-γGlu-γGlu-Palmitoyl])ST[Trp(5-Cl)]S[Aib]RRK(Ac)-NH2 [Relaxin peptide analogue of SEQ ID NO: 80]: the “EC50 (nM), OVCAR 5 cells (cAMP)” value worked out at 0.63 nM and the “EMax, OVCAR 5 cells (cAMP)” value amounted to 93%.
For Ac-LEGREKVRAK(Ac)I[Aib][Aib]EGK([TTDS-TTDS-TTDS-γGlu-γGlu-γGlu-Palmitoyl])SKWS[Aib]RKK(Ac)-NH2 [Relaxin peptide analogue of SEQ ID NO: 83] the same measures were 0.25 nM and 94%.
For the molecule Ac-LEGRERVRAK(Ac)I[Aib][Aib]EGK([TTDS-TTDS-TTDS-γGlu-γGlu-γGlu-Palmitoyl])ST[Trp(5-F)]S[Aib]RRK(Ac)-NH2 [Relaxin peptide analogue of SEQ ID NO: 92], the “EC50 (nM), OVCAR 5 cells (cAMP)” value turned out to be 0.1 nM and the “EMax, OVCAR 5 cells (cAMP)” value amounted to 99%.
Take Ac-K(Ac)EGREKVRAK(Ac)I[Aib][Aib]EGK([TTDS-TTDS-TTDS-γGlu-γGlu-γGlu-Palmitoyl])STFS[αMeK]RAK(Ac)-NH2 [Relaxin peptide analogue of SEQ ID NO: 81]: the “EC50 (nM), OVCAR 5 cells (cAMP)” value was 0.16 nM and the “EMax, OVCAR 5 cells (cAMP)” value amounted to 98%.
Take Ac-LEGREKVRAK(Ac)I[Aib][Aib]EGK([TTDS-TTDS-TTDS-γGlu-γGlu-γGlu-Palmitoyl])STFVRRAK(Ac)-NH2 [Relaxin peptide analogue of SEQ ID NO: 94]: the “EC50 (nM), OVCAR 5 cells (cAMP)” value came out at 1.74 nM and the “EMax, OVCAR 5 cells (cAMP)” value was found to be 88%.
Regarding Ac-LEGREKVR[Aib]K(Ac)I[Aib][Aib]EGK([TTDS-TTDS-TTDS-γGlu-γGlu-γGlu-Palmitoyl])STWS[Aib]RAK(Ac)-NH2 [Relaxin peptide analogue of SEQ ID NO: 82], the “EC50 (nM), OVCAR 5 cells (cAMP)” value amounted to 0.54 nM and the “EMax, OVCAR 5 cells (cAMP)” value was found to be 95%.
For the molecule Ac-LEGREKVRAK(Ac)I[Aib][Aib]EGK([TTDS-TTDS-TTDS-γGlu-γGlu-γGlu-Palmitoyl])STFSRRAK(Ac)-NH2 [Relaxin peptide analogue of SEQ ID NO: 87], the “EC50 (nM), OVCAR 5 cells (cAMP)” value was 0.1 nM and the “EMax, OVCAR 5 cells (cAMP)” value stood at 96%.
For the molecule Ac-LEGREKVRAK(Ac)I[Aib][Aib]EGK([TTDS-TTDS-TTDS-γGlu-γGlu-γGlu-Palmitoyl])STFTRRAK(Ac)-NH2 [Relaxin peptide analogue of SEQ ID NO: 93], the “EC50 (nM), OVCAR 5 cells (cAMP)” value came to 0.77 nM and the “EMax, OVCAR 5 cells (cAMP)” value was 86%.
On the same counts, the results for Ac-LEGREKVRAK(Ac)IA[Aib]EGK([TTDS-TTDS-TTDS-γGlu-γGlu-γGlu-Palmitoyl])STFS[αMeK]RAK(Ac)-NH2 [Relaxin peptide analogue of SEQ ID NO: 90] are 0.14 nM and 97%.
Regarding Ac-LEGREKVRAK(Ac)I[Aib][Aib]EGK([TTDS-TTDS-TTDS-γGlu-γGlu-γGlu-Myristoyl])STFS[αMeK]RAK(Ac)-NH2 [Relaxin peptide analogue of SEQ ID NO: 95], the “EC50 (nM), OVCAR 5 cells (cAMP)” value amounted to 1.8 nM and the “EMax, OVCAR 5 cells (cAMP)” value was determined as 91%.
As for Ac-LEGREKVRAK(Ac)I[Aib][Aib]EGK([TTDS-TTDS-TTDS-γGlu-γGlu-γGlu-Palmitoyl])STFS[hLys]RAK(Ac)-NH2 [Relaxin peptide analogue of SEQ ID NO: 88], the “EC50 (nM), OVCAR 5 cells (cAMP)” value was 0.17 nM and the “EMax, OVCAR 5 cells (cAMP)” value amounted to 96%.
Ac-LEGRERVR[Aib]K(Ac)I[Aib][Aib]EGK([TTDS-TTDS-TTDS-γGlu-γGlu-γGlu-Palmitoyl])STWS[Aib]RRK(Ac)-NH2 [Relaxin peptide analogue of SEQ ID NO: 85]: the “EC50 (nM), OVCAR 5 cells (cAMP)” value was determined as 0.3 nM and the “EMax, OVCAR 5 cells (cAMP)” value came to 92%.
With Ac-[Aib]EGREKVRAK(Ac)I[Aib]IEGK([TTDS-TTDS-TTDS-γGlu-γGlu-γGlu-Palmitoyl])STFS[αMeK]RAK(Ac)-NH2 [Relaxin peptide analogue of SEQ ID NO: 86], the “EC50 (nM), OVCAR 5 cells (cAMP)” value turned out to be 0.3 nM and the “EMax, OVCAR 5 cells (cAMP)” value came out at 95%.
Consider Ac-LEGREKVRAK(Ac)I[Aib][Aib]EGK([TTDS-TTDS-TTDS-γGlu-γGlu-γGlu-Palmitoyl])ST[αMeF]SRRAK(Ac)-NH2 [Relaxin peptide analogue of SEQ ID NO: 89], for which the “EC50 (nM), OVCAR 5 cells (cAMP)” value amounted to 0.1 nM and the “EMax, OVCAR 5 cells (cAMP)” value turned out to be 97%.
For Ac-LEGREKVRAK(Ac)I[Aib][Aib]EGK([TTDS-TTDS-γGlu-γGlu-Palmitoyl])STFS[αMeK]RAK(Ac)-NH2 [Relaxin peptide analogue of SEQ ID NO: 9] the same measures were 0.7 nM and 93%.
Turning to Ac-LEGREKVRAK(Ac)I[Aib][Aib]EGK([TTDS-TTDS-TTDS-γGlu-γGlu-γGlu-Myristoyl])STFS[αMeK]RAK-NH2 [Relaxin peptide analogue of SEQ ID NO: 96], the “EC50 (nM), OVCAR 5 cells (cAMP)” value was 0.88 nM and the “EMax, OVCAR 5 cells (cAMP)” value is 92%.
With Ac-LEGRERVRAK(Ac)I[Aib][Aib]EGK([TTDS-TTDS-TTDS-γGlu-γGlu-γGlu-Palmitoyl])ST[Phe(4-F)]S[Aib]RRK(Ac)-NH2 [Relaxin peptide analogue of SEQ ID NO: 91], the “EC50 (nM), OVCAR 5 cells (cAMP)” value was found to be 0.09 nM and the “EMax, OVCAR 5 cells (cAMP)” value stood at 97%.

The record behind these values is US20240400638A1, “COMBINATION OF RELAXIN AND VASOPRESSIN ANALOGUES FOR TREATMENT OF RENAL DISORDERS OR CONDITIONS” (River 2 Renal Corp., priority 2021, published 2024).
